From the supplement of paper PMC9112550, “Optimization of the antimicrobial peptide Bac7 by deep mutational scanning” (BMC Biology, 2022)

test system: Escherichia coli TOP10; assay: shrunken log2 fold change of peptide-encoding DNA abundance (4.5 h post-induction vs induction); higher = less antimicrobial activity (less host growth inhibition); details: time post-induction: 4.5 h; library: site-saturation at positions 5, 18, 19, 20
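Note: peptides expressed intracellularly from a pBAD plasmid library in pooled LB shake-flask culture, induced with 0.3% L-arabinose, DNA abundance read by NGS, three biological replicates, DESeq2 with apeglm shrinkage.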

Row | Sequence | shrunken log2 fold change
1 | RRIRLRPPRLPRPRPRPMPAPRP | 0.221
2 | RRIRGRPPRLPRPRPRPLYVPRP | 0.0628
3 | RRIRLRPPRLPRPRPRPKDAPRP | -0.11
4 | RRIRMRPPRLPRPRPRPPKPPRP | 0.717
5 | RRIRCRPPRLPRPRPRPALQPRP | 0.313
6 | RRIRDRPPRLPRPRPRPARNPRP | 0.316
7 | RRIRRRPPRLPRPRPRPGCNPRP | 0.327
8 | RRIRNRPPRLPRPRPRPCSVPRP | 0.0192
9 | RRIRERPPRLPRPRPRPQHTPRP | -0.32
10 | RRIRYRPPRLPRPRPRPEIAPRP | -0.185
11 | RRIRIRPPRLPRPRPRPVPAPRP | 0.0984
12 | RRIRDRPPRLPRPRPRPMAEPRP | 0.902
13 | RRIRMRPPRLPRPRPRPSMRPRP | 0.429
14 | RRIRFRPPRLPRPRPRPGWLPRP | 0.129
15 | RRIRYRPPRLPRPRPRPMLHPRP | -0.404
16 | RRIRKRPPRLPRPRPRPPEPPRP | 0.842
17 | RRIRHRPPRLPRPRPRPMLFPRP | -0.0839
18 | RRIRERPPRLPRPRPRPPEFPRP | 0.127
19 | RRIRARPPRLPRPRPRPRGLPRP | 0.628
20 | RRIRCRPPRLPRPRPRPYNFPRP | -0.497
21 | RRIRMRPPRLPRPRPRPMCFPRP | 0.271
22 | RRIRRRPPRLPRPRPRPSFVPRP | -0.0435
23 | RRIRTRPPRLPRPRPRPTSPPRP | 0.119
24 | RRIRMRPPRLPRPRPRPDDAPRP | 0.225
25 | RRIRRRPPRLPRPRPRPGVKPRP | 0.187

Row | Sequence | shrunken log2 fold change
26 | RRIRARPPRLPRPRPRPQCVPRP | 0.0695
27 | RRIRRRPPRLPRPRPRPCGMPRP | 0.114
28 | RRIRIRPPRLPRPRPRPMTQPRP | 0.0472
29 | RRIRERPPRLPRPRPRPNFIPRP | -0.442
30 | RRIRMRPPRLPRPRPRPPPYPRP | 1.15
31 | RRIRLRPPRLPRPRPRPMMRPRP | 0.196
32 | RRIRTRPPRLPRPRPRPIAQPRP | -0.0464
33 | RRIRDRPPRLPRPRPRPKPVPRP | 0.00913
34 | RRIRFRPPRLPRPRPRPLCSPRP | -0.566
35 | RRIRDRPPRLPRPRPRPQDMPRP | -0.628
36 | RRIRTRPPRLPRPRPRPEDVPRP | -0.0588
37 | RRIRYRPPRLPRPRPRPRTRPRP | -0.0272
38 | RRIRMRPPRLPRPRPRPDHLPRP | -0.0674
39 | RRIRWRPPRLPRPRPRPNQLPRP | -0.208
40 | RRIRIRPPRLPRPRPRPFFLPRP | -0.406
41 | RRIRERPPRLPRPRPRPSIYPRP | -1
42 | RRIRMRPPRLPRPRPRPLIWPRP | 0.246
43 | RRIRTRPPRLPRPRPRPPNRPRP | 0.135
44 | RRIRQRPPRLPRPRPRPVFCPRP | 0.0139
45 | RRIRGRPPRLPRPRPRPFHHPRP | -0.126
46 | RRIRFRPPRLPRPRPRPHVFPRP | -0.136
47 | RRIRTRPPRLPRPRPRPAPSPRP | 0.231
48 | RRIRKRPPRLPRPRPRPFTMPRP | -0.23
49 | RRIRRRPPRLPRPRPRPQCMPRP | -0.0592
50 | RRIRWRPPRLPRPRPRPFVKPRP | -0.753

Row | Sequence | shrunken log2 fold change
51 | RRIRARPPRLPRPRPRPSMIPRP | -0.128
52 | RRIRTRPPRLPRPRPRPNEVPRP | 0.0231
53 | RRIRTRPPRLPRPRPRPKDAPRP | 0.103
54 | RRIRLRPPRLPRPRPRPHWEPRP | 0.0215
55 | RRIRIRPPRLPRPRPRPVGVPRP | -0.157
56 | RRIRYRPPRLPRPRPRPNDCPRP | -1.04
57 | RRIRKRPPRLPRPRPRPCNGPRP | -0.0184
58 | RRIRWRPPRLPRPRPRPLTYPRP | -0.423
59 | RRIRLRPPRLPRPRPRPHIDPRP | -0.135
60 | RRIRIRPPRLPRPRPRPMSEPRP | -0.00782
61 | RRIRHRPPRLPRPRPRPFHPPRP | -0.274
62 | RRIRNRPPRLPRPRPRPDQDPRP | -0.00104
63 | RRIRMRPPRLPRPRPRPEAQPRP | 3.76
64 | RRIRTRPPRLPRPRPRPIHYPRP | -0.356
65 | RRIRCRPPRLPRPRPRPRSGPRP | 0.694
66 | RRIRLRPPRLPRPRPRPEPGPRP | 0.35
67 | RRIRTRPPRLPRPRPRPTIDPRP | -0.319
68 | RRIRMRPPRLPRPRPRPSEKPRP | 0.938
69 | RRIRLRPPRLPRPRPRPMNGPRP | -0.618
70 | RRIRARPPRLPRPRPRPACCPRP | 0.658
71 | RRIRIRPPRLPRPRPRPHSEPRP | -0.13
72 | RRIRGRPPRLPRPRPRPCQAPRP | -0.0272
73 | RRIRDRPPRLPRPRPRPHLDPRP | -0.131
74 | RRIRRRPPRLPRPRPRPYNMPRP | -0.499
75 | RRIRQRPPRLPRPRPRPQYPPRP | -0.199
